From patent publication US20240117030A1 (Pfizer, published 2024)
Substitutions are numbered along the chain they refer to.

T1: human IL-4 (human, UniProt P05112 25-153)
T1 sequence (looked up): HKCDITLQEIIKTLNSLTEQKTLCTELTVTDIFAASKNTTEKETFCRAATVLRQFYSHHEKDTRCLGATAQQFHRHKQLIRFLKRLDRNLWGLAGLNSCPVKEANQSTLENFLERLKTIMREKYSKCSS

T2: recombinant human IL-33 (wild type, Ser112-Thr270) (human, UniProt O95760 112-270)
T2 sequence (looked up): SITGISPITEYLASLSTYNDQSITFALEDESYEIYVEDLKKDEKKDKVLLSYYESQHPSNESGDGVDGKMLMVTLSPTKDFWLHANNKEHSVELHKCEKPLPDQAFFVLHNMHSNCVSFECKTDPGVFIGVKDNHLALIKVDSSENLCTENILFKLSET

T3: recombinant human IL-4 (human, UniProt P05112 25-153)
T3 sequence (looked up): T1 sequence (looked up)

T4: IL-33 mm2 (human, UniProt O95760 112-270, limits assumed)
T4 sequence (looked up): T2 sequence (looked up) with C97S, C116S, C121S, C148S

T5: IL-33 (mm2), human IL-33 variant with all four cysteines changed to serine (human, UniProt O95760 112-270, limits assumed)
T5 sequence (looked up): T2 sequence (looked up) with C97S, C116S, C121S, C148S

B1: IL13433-0006 (other)
heavy: EVQLVESGGGLVQPGGSLRLSCAASGFTFSSYAMSWVRQAPGKGLEWVASISSGDTTYYPDSVKGRFTISRDNAKNSLYLQMNSLRAEDTAVYYCARNEGYYFGLTLWGQGTLVTVSSASTKGPSVFPKAPSSKSTSGGTAALGCLVKDYFPEPVTVSWNSGALTSGVHTFPAVLQSSGLYSLSSSVTVPSSSLGTQTYICNVNHKPSNTKVDKKVEPKSCDKTHTCPPCPAPEAAGAPSVFLFPPKPKDTLMISRTPEVTCVVVDVSHEDPEVKFNWYVDGVEVHNAKTKPREEQYNSTYRVVSVLTVLHQDWLNGKEYKCKVSNKALPAPIEKTISKAKGQPREPQVCTLPPSREEMTKNQVSLWCLVKGFYPSDIAVEWESNGQPENNYKTTPPVLDSDGSFFLYSKLTVDKSRWQQGNVFSCSVMHEALHNHYTQKSLSLSPGK
chain 1: DIQMTQSPSSLSASVGDRVTITCKASQNINKHLDWYQQKPGKAPKLLIYFTNNLQTGVPSRFSGSGSGTDFTLTISSLQPEDFATYYCFQYNQGWTFGGGTKVEIKRTVAAPSVFIFPPSDEQLKSGTASVVCLLNNFYPREAKVQWKVDNALQSGNSQESVTEQDSKDSTYSLSSTLTLSKADYEKHKVYACEVTHQGLSSPVTKSFNRGECGGGGSEVTLRESGPALVKPTQTLTLTCTFSGFSLSNFGEGLSWIRQPPGKGLEWLAHIYWDDDKRYNPSLKSRLTISKDTSRNQVVLTMTNMDPVDTATYYCARRETVFYWYFDVWGQGTTVTVSSASTKGPSVFPEAPSSKSTSGGTAALGCLVKDYFPEPVTVSWNSGALTSGVHTFPAVLQSSGLYSLGSVVTVPSSSLGTQTYICNVNHKPSNTKVDKKVEPKSCDKTHTCPPCPAPEAAGAPSVFLFPPKPKDTLMISRTPEVTCVVVDVSHEDPEVKFNWYVDGVEVHNAKTKPREEQYNSTYRVVSVLTVLHQDWLNGKEYKCKVSNKALPAPIEKTISKAKGQPREPQVYTLPPCREEMTKNQVSLSCAVKGFYPSDIAVEWESNGQPENNYKTTPPVLDSDGSFFLVSKLTVDKSRWQQGNVFSCSVMHEALHNHYTQKSLSLSPGK
light 1: DIQMTQSPSSLSASVGDRVTITCKASESVDHFGWSLVHWYQQKPGKAPKLLIYRASNLESGVPSRFSGSGSGTDFTLTISSLQPEDFATYYCQQSNEDPWTFGGGTKVEIKRTVAAPSVFIFPPSDEQLKSGTASVSCLLNNFYPREAKVQWKVDNALQSGNSQESVTEQDSKDSTYSLDSTLTLSKADYEKHKVYACEVTHQGLSSPVTKSFNRGEC
light 2: B1 light 1 with E27Q, H31E, F32D, W34D, L36Y, V37M, H38N, R54A, W100P, D180K
chain 2: EVQLVESGGGLVQPGGSLRLSCAASGFTFSSYWMYWVRQAPGKGLEWVAAITPNAGEDYYPESVKGRFTISRDNAKNSLYLQMNSLRAEDTAVYYCARGHYYYTSYSLGYWGQGTLVTVSSASTKGPSVFPLAPSSKSTSGGTAALGCLVKDYFPEPVTVSWNSGALTSGVHTFPAVLQSSGLYSLSSVVTVPSSSLGTQTYICNVNHKPSNTKVDKKVEPKSC
B2: IL13433-0005 (other)
heavy: EVTLRESGPALVKPTQTLTLTCTFSGFSLSNFGEGLSWIRQPPGKGLEWLAHIYWDDDKRYNPSLKSRLTISKDTSRNQVVLTMTNMDPVDTATYYCARRETVFYWYFDVWGQGTTVTVSSASTKGPSVFPEAPSSKSTSGGTAALGCLVKDYFPEPVTVSWNSGALTSGVHTFPAVLQSSGLYSLGSVVTVPSSSLGTQTYICNVNHKPSNTKVDKKVEPKSCDKTHTCPPCPAPEAAGAPSVFLFPPKPKDTLMISRTPEVTCVVVDVSHEDPEVKFNWYVDGVEVHNAKTKPREEQYNSTYRVVSVLTVLHQDWLNGKEYKCKVSNKALPAPIEKTISKAKGQPREPQVYTLPPCREEMTKNQVSLSCAVKGFYPSDIAVEWESNGQPENNYKTTPPVLDSDGSFFLVSKLTVDKSRWQQGNVFSCSVMHEALHNHYTQKSLSLSPGK
chain 1: DIQMTQSPSSLSASVGDRVTITCKASQNINKHLDWYQQKPGKAPKLLIYFTNNLQTGVPSRFSGSGSGTDFTLTISSLQPEDFATYYCFQYNQGWTFGGGTKVEIKRTVAAPSVFIFPPSDEQLKSGTASVVCLLNNFYPREAKVQWKVDNALQSGNSQESVTEQDSKDSTYSLSSTLTLSKADYEKHKVYACEVTHQGLSSPVTKSFNRGECGGGGSEVQLVESGGGLVQPGGSLRLSCAASGFTFSSYAMSWVRQAPGKGLEWVASISSGDTTYYPDSVKGRFTISRDNAKNSLYLQMNSLRAEDTAVYYCARNEGYYFGLTLWGQGTLVTVSSASTKGPSVFPKAPSSKSTSGGTAALGCLVKDYFPEPVTVSWNSGALTSGVHTFPAVLQSSGLYSLSSSVTVPSSSLGTQTYICNVNHKPSNTKVDKKVEPKSCDKTHTCPPCPAPEAAGAPSVFLFPPKPKDTLMISRTPEVTCVVVDVSHEDPEVKFNWYVDGVEVHNAKTKPREEQYNSTYRVVSVLTVLHQDWLNGKEYKCKVSNKALPAPIEKTISKAKGQPREPQVCTLPPSREEMTKNQVSLWCLVKGFYPSDIAVEWESNGQPENNYKTTPPVLDSDGSFFLYSKLTVDKSRWQQGNVFSCSVMHEALHNHYTQKSLSLSPGK
light 1: B1 light 1 with E27Q, H31E, F32D, W34D, L36Y, V37M, H38N, R54A, W100P, D180K
light 2: B1 light 1
chain 2: B1 chain 2
B3: IL13433-0607 (other)
heavy: B1 heavy with S53T, L107Q, Q110R, M429L, N435S
chain 1: B1 chain 1 with K24R, N28P, N30S, N280S, P281T, S285T, M650L, N656S
light 1: B1 light 1 with K24R, S56D, N57S, S60T
light 2: DIQMTQSPSSLSASVGDRVTITCRASQSVDEEGDSYMNWYQQKPGKAPKLLIYAASNLESGVPSRFSGSGSGTDFTLTISSLQPEDFATYYCQQSHKDPPTFGGGTKVEIKRTVAAPSVFIFPPSDEQLKSGTASVSCLLNNFYPREAKVQWKVDNALQSGNSQESVTEQDSKDSTYSLKSTLTLSKADYEKHKVYACEVTHQGLSSPVTKSFNRGEC
chain 2: B1 chain 2
B4: IL13433-1270 (other)
heavy: EVQLVESGGGLVQPGGSLRLSCAASGFTFSSYWMYWVRQAPGKGLEWVAAITPNAGEDYYPESVKGRFTISRDNAKNSLYLQMNSLRAEDTAVYYCARGQYYYTKYSLGYWGQGTLVTVSSASTKGPSVFPKAPSSKSTSGGTAALGCLVKDYFPEPVTVSWNSGALTSGVHTFPAVLQSSGLYSLSSSVTVPSSSLGTQTYICNVNHKPSNTKVDKKVEPKSCDKTHTCPPCPAPEAAGAPSVFLFPPKPKDTLMISRTPEVTCVVVDVSHEDPEVKFNWYVDGVEVHNAKTKPREEQYNSTYRVVSVLTVLHQDWLNGKEYKCKVSNKALPAPIEKTISKAKGQPREPQVCTLPPSREEMTKNQVSLWCLVKGFYPSDIAVEWESNGQPENNYKTTPPVLDSDGSFFLYSKLTVDKSRWQQGNVFSCSVLHEALHSHYTQKSLSLSPGK
chain 1: DIQMTQSPSSLSASVGDRVTITCKASESVDHFGWSLVHWYQQKPGKAPKLLIYRASNLESGVPSRFSGSGSGTDFTLTISSLQPEDFATYYCQQSNEDPWTFGGGTKVEIKRTVAAPSVFIFPPSDEQLKSGTASVVCLLNNFYPREAKVQWKVDNALQSGNSQESVTEQDSKDSTYSLSSTLTLSKADYEKHKVYACEVTHQGLSSPVTKSFNRGECGGGGSEVTLRESGPALVKPTQTLTLTCTFSGFSLSNFGEGLSWIRQPPGKGLEWLAHIYWDDDKRYNPSLKSRLTISKDTSRNQVVLTMTNMDPVDTATYYCARRETVFYWYFDVWGQGTTVTVSSASTKGPSVFPEAPSSKSTSGGTAALGCLVKDYFPEPVTVSWNSGALTSGVHTFPAVLQSSGLYSLGSVVTVPSSSLGTQTYICNVNHKPSNTKVDKKVEPKSCDKTHTCPPCPAPEAAGAPSVFLFPPKPKDTLMISRTPEVTCVVVDVSHEDPEVKFNWYVDGVEVHNAKTKPREEQYNSTYRVVSVLTVLHQDWLNGKEYKCKVSNKALPAPIEKTISKAKGQPREPQVYTLPPCREEMTKNQVSLSCAVKGFYPSDIAVEWESNGQPENNYKTTPPVLDSDGSFFLVSKLTVDKSRWQQGNVFSCSVLHEALHSHYTQKSLSLSPGK
light 1: DIQMTQSPSSLSASVGDRVTITCRASQPIHNHLDWYQQKPGKAPKLLIYFGKNLQEGVPSRFSGSGSGTDFTLTISSLQPEDFATYYCFQYKKGWSFGGGTKVEIKRTVAAPSVFIFPPSDEQLKSGTASVSCLLNNFYPREAKVQWKVDNALQSGNSQESVTEQDSKDSTYSLDSTLTLSKADYEKHKVYACEVTHQGLSSPVTKSFNRGEC
light 2: B3 light 2 with H96N
chain 2: EVQLVESGGGLVQPGGSLRLSCAASGFTFSSYAMSWVRQAPGKGLEWVASISSGDTTYYPDSVKGRFTISRDNAKNSLYLQMNSLRAEDTAVYYCARNEGYYFGLTLWGQGTLVTVSSASTKGPSVFPLAPSSKSTSGGTAALGCLVKDYFPEPVTVSWNSGALTSGVHTFPAVLQSSGLYSLSSVVTVPSSSLGTQTYICNVNHKPSNTKVDKKVEPKSC

What was measured:
Assay in all cases: cell-based or functional assay
human IL-4 = target: T1, human IL-4
human IL-13 = human IL-13 (human, UniProt P35225 35-146)
Sequence of human IL-13 (P35225 35-146 limits assumed): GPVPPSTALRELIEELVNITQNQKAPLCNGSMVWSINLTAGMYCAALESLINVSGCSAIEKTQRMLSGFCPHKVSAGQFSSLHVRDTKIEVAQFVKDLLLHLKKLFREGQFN

[1] = target: T2, recombinant human IL-33 (wild type, …)
recombinant human IL-4 = target: T3, recombinant human IL-4
recombinant human IL-13 = recombinant human IL-13 (human, UniProt P35225 35-146)
Sequence of recombinant human IL-13 (P35225 35-146 limits assumed): as above

IL-33 mm2 = target: T4, IL-33 mm2
[2] = target: T5, IL-33 (mm2), human IL-33 variant with …

| Binder | a-hIL-4 bioassay IC50, pM) (human IL-4) | a-hIL-13 bioassay (IC50, pM) (human IL-13) | a-IL-33 bioassay (WT IL33) IC50 (pM) [1] | IL-4 Induced CD23 Expression, potency of cytokine neutralization (recombinant human IL-4) | IL-13 Induced CD23 Expression, potency of cytokine neutralization (recombinant human IL-13) | IL-33 mm2 Cys Activation of SEAP Reporter Cells, potency of cytokine neutralization (IL-33 mm2) | a-IL-33 bioassay cys mutant IL33) IC50 (pM) [2] |
| --- | --- | --- | --- | --- | --- | --- | --- |
| B1 | 10.3 pM | 9.01 pM | 112 pM |  |  |  |  |
| B2 |  |  |  | 0.0032 nM | 0.0125 nM | 0.045 nM |  |
| B3 | 66.9 pM | 20.3 pM |  |  |  |  | 182 pM |
| B4 | 16.5 pM | 7.58 pM | 12 pM |  |  |  |  |
